Measurements published in US20150010591A1 (UNIVERSITY OF BRITISH COLUMBIA, published 2015).

Key:
Assay in all cases: peptide eluted from immunoaffinity-purified MHC class II of infected C57BL/6 BM-DCs, LC-MS/MS
[1] = target: T1, IPFAKPDANLSAED, peptide of C. trachomatis Hypothetical protein CT619 (Chlamydia trachomatis)
T1 construct: also called CT619 peptide

[2] = target: T2, …, peptide of C. trachomatis Hypothetical protein CT143 (Chlamydia trachomatis)
T2 construct: also called CT143 peptide

[3] = target: T3, …, peptide of C. trachomatis Hypothetical protein CT472 (Chlamydia trachomatis)
T3 construct: also called CT472 peptide

[4] = target: T4, …, peptide of C. trachomatis Hypothetical protein CT289 (Chlamydia trachomatis)
T4 construct: also called CT289 peptide

[5] = target: T5, …, peptide of C. trachomatis Dihydrolipoamide acetyltransferase (CT247) (Chlamydia trachomatis)
T5 construct: also called PdhC peptide

[6] = target: T6, […], peptide of C. trachomatis Predicted D-Amino Acid Dehydrogenase (CT375) (Chlamydia trachomatis)
T6 construct: also called CT375 peptide

[7] = target: T7, …, peptide of C. trachomatis CHLPN 76kDa Homolog (CT622) (Chlamydia trachomatis)
T7 construct: also called CT622 peptide

[8] = target: T8, …, peptide of C. trachomatis Muramidase (invasin repeat family) (CT759) (Chlamydia trachomatis)
T8 construct: also called NlpD peptide

[9] = target: T9, …, peptide of C. trachomatis Hypothetical protein CT144 (Chlamydia trachomatis)
T9 construct: also called CT144 peptide

[10] = target: T10, …, peptide of C. trachomatis FHA domain; homology to adenylate cyclase (CT664) (Chlamydia trachomatis)
T10 construct: also called CT664 peptide

[11] = target: T11, …, peptide of C. trachomatis Hypothetical protein CT837 (Chlamydia trachomatis)
T11 construct: also called CT837 peptide

[12] = target: T12, …, peptide of C. trachomatis Sigma Regulatory factor (CT424) (Chlamydia trachomatis)
T12 construct: also called RsbV peptide

Measured: binding result

B1: MHC class II (I-Ab) molecules of bone marrow derived dendritic cells from C57BL/6 mice (receptor)
MHC II alpha: EDDIEADHVGTYGISVYQSPGDIGQYTFEFDGDELFYVDLDKKETVWMLPEFGQLASFDPQGGLQNIAVVKHNLGVLTKRSNSTPATNEAPQATVFPKSPVLLGQPNTLICFVDNIFPPVINITWLRNSKSVADGVYETSFFVNRDYSFHKLSYLTFIPSDDDIYDCKVEHWGLEEPVLKHWEPEIPAPMSELTETVVCALGLSVGLVGIVVGTIFIIQGLRSGGTSRHPGPL
MHC II beta: GDSERHFVYQFMGECYFTNGTQRIRYVTRYIYNREEYVRYDSDVGEHRAVTELGRPDAEYWNSQPEILERTRAELDTVCRHNYEGPETHTSLRRLEQPNVVISLSRTEALNHHNTLVCSVTDFYPAKIKVRWFRNGQEETVGVSSTQLIRNGDWTFQVLVMLEMTPRRGEVYTCHVEHPSLKSPITVEWRAQSESAWSKMLSGIGGCVLGVIFLGLGLFIRHRSQKGPRGPPPAGLLQ
notes: whole, on cells; also called MHC class II molecules
binds: all assays above
